From patent publication US20250109212A1
Like-named read-outs stand apart in the source and are kept apart here.

What was measured:
[1] = molecular target: full length human CD47 (NCBI #NP_942088.1) on 293F-CD47 cells (human) (UniProt Q08722); experiment: cell-based blocking FACS on 293F-CD47 cells, blocked ligand biotin-labeled human CD172a-Fc, MFI
[2] = molecular target: full length human CD47 (NCBI #NP_942088.1) on 293F-CD47 cells (human) (UniProt Q08722); experiment: FACS on 293F-CD47 cells, detection with goat anti-human IgG (Fc)-PE, MFI
[3] = molecular target: full length human CD47 (NCBI #NP_942088.1) on 293F-CD47 cells (human) (UniProt Q08722); experiment: cell-based blocking FACS on 293F-CD47 cells, blocked ligand biotin-labeled human CD172a-Fc, MFI; remark: listed apart in the source

Substance: SIRPα-isoform2-Fc (Fc fusion)
- IC50 [1]: 1.9 nM
- EC50 [2]: 1.72 nM
- IC50 [3]: 3.25 nM
